Tested on: K4 kissing-loop RNA reporter
Assay: apparent KD of K4 kissing-loop reporter; higher = weaker reporter binding
Details: Eterna round: R107
Experimental: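 RNA-MaP round R107: designed RNA switches with theophylline, tryptophan, arginine or FMN aptamers are transcribed on-chip within common flanks. They are titrated with a labelled K4 kissing-loop RNA reporter in RNA-MaP buffer (100 mM Tris pH 7.5, 80 mM KCl, 4 mM MgCl2), without ligand or with the indicated ligand. Median apparent KD per design.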

[1] = input ligand: theophylline 20 uM
[2] = input ligand: tryptophan 2.4 mM
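Also: bound reporter read as fluorescence of individual clusters on recovered sequencing chips by microscopy, with normalized cluster intensities fitted with a binding model.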

Sequence	apparent KD of K4 kissing-loop reporter (input ligand: FMN 200 uM)	apparent KD of K4 kissing-loop reporter (input ligand: arginine 13.2 mM)	apparent KD of K4 kissing-loop reporter (input ligand: none)	apparent KD of K4 kissing-loop reporter [1]	apparent KD of K4 kissing-loop reporter [2]
ACAGUUGCUAGUGAUACCAGACUAGCACUACGUAAUAUGUCAAGUGAUGUUUGACAACUAGUCCCUUGGCAGCGCGAUACGACUG [#11 K4 Theophylline B Same State]	235 nM	289 nM	259 nM	269 nM	225 nM
GCGCGUCAUGUCAGCGGUGACACUGUCGAUACCAGCGCCGCAAGGCGCCCUUGGCAGCGACGUGCUGGAGUGAUGUUCCAGCGUC [#2 Exclusion - Theophylline A Attempt #22 (HarryS)]	159 nM	113 nM	145 nM	142 nM	140 nM
AUUUUUUUAUCAGGAUAUUAGUGAUGGUUUGUUUUGUUAGUGAUGUUGAUAUUUGUUUUAUGUAUUUAAGAAGGGAUUGAGAUGU [seesullin]	67 nM	25.3 nM	44.1 nM	29.2 nM	48.9 nM
GUUCGGAUGCGGGAUACCAGCGUACCGAGCAAGCUUCGGGUAGUGAUGUUAUCUGAAUUACGCCCUUGGCAGCCCGCAUCCGGGC [clock_plus]	265 nM	234 nM	285 nM	212 nM	256 nM
AACGGCCAGUCGGCCGCCACUCGAUGCAGUGAUGUUGCUAACUUUCUAAAAGAGUGAUGUUCAUGGAGGACCGGGACUAGUGUAA [#30 K4 Tryptophan B Exclusion]	317 nM	244 nM	291 nM	255 nM	241 nM
AGUAGAGCAUCAGAUACCAGACAGAACUGAUGGUAAGGAGUGAUGUUCCUUAAUCAGCUUGUCCCUUGGCAGCUGAUAGUAGUCA [#14 K4 Theophylline B Same State]	388 nM	417 nM	431 nM	348 nM	383 nM
UUUCGGUUCUGAGGAUAUUCGGACAAAUAUAGUGAUGUUGUAUAAGGAGGAGGGUGUUGGCAGUGCGGAGAAGGCAGAAGAGGAU [ExFMNB.U]	848 nM	737 nM	992 nM	556 nM	446 nM
ACGUAGUACGUAGGAUAUCAGAGAUCAGUUAGUGAGAUCGAGUGAUGUUCGAUCAAGUGUUCAUUUUGAGAAGGAUGUAGUAGGA [KL-SSFMN-B7]	263 nM	320 nM	387 nM	428 nM	238 nM
AGACCUCAGUGAUGUUGAGGUAACGCUGAUACCAGUGACUUAAUUCACCCUUGGCAGCAGUCCACCAAGGUAUCUGAUUAGGUCU [Theo A Ex t5]	153 nM	163 nM	133 nM	144 nM	138 nM
CAAUGAGUAUAAGAUGAUAUCAUAACAGAAGGAGCGAGUGAUAACUCAGGUAGGUCGCUGAAUUUAUCGAGUGAUGUUCGAUAAA [whbob_SS_Arginine_A_sa116]	205 nM	154 nM	187 nM	166 nM	184 nM
UUACGCGGCAUAGAUACCAGCAAUGCAGGAUAGGUCAAGAGUGAUGUUCUGAUACUUGGGUGCCCUUGGCAGCUAGACGAUAACA [theeternabot_sameState_KL_Theo_B_46]	479 nM	449 nM	521 nM	412 nM	308 nM
UUUUUGGAGAAUUAUAGUGAUGUUAUGAAGGAGGAUAUCUGGAGAUGGAGAAGGCCUAGUGGCUCAGCCAUGGAGGGUGGGUGGG [ExFMNA.aA]	1110 nM	527 nM	894 nM	655 nM	611 nM
UUGAUAUGAUAGUAUCUUGUUUGAUAAAGGCAGGAUAUCGUAUAUUUGAGAAGGGCCAUUAUAUGCAGUGAUGUUGCAAAUAAGU [Exclusion FMN A Gf 25]	43.5 nM	56.7 nM	41.3 nM	61.4 nM	40 nM
GUAGUUGCGCAAGGAUAUUAGUUAAGUGAUGUUUGAUUCGGUAUUGUUUACGUACACUGACCCGAUUAAGAAGGUGCGGGCAGCG [theeternabot_exclusion_KL_FMN_B_50]	604 nM	582 nM	580 nM	343 nM	369 nM
GUCCCGAGUGAUGUUCGGGUCGUUUGGGAAGGAGCGCCCGGAAGGGCAGGUAGGUCGCCCGGACCGUGCAGGUAACUGUGCGGCC [#2 Same State - Arginine A Attempt #18 (HarryS)]	176 nM	146 nM	181 nM	196 nM	178 nM
CAGGCCGAGUGAUGUUCGGUCUGAGUGAUAAAGGAUAUAAGGGAUUUUAGAAGGUUAUCUAAACAGACCAAACAUCUAUCCACUC [theeternabot_exclusion_KL_FMN_A_16]	221 nM	128 nM	138 nM	145 nM	122 nM
UAGUCGCUAGUUAGCGACAACGGGUCAGAUACCAGACUAGCGAUAGUCCCUUGGCAGCUGAAGUUCAGUGAUGUUGAACGGAUUA [Theo A SS t10]	192 nM	296 nM	265 nM	230 nM	207 nM
AACGUUUUGAGAAGGAGCGCGAUAAGCAGUGAUGUUGCUAUAAUUCUAUUUCUAUUUAAUUCGCAGGUAGGUCGCUCAAUACGUA [JR_SSArginiB_Sub019]	136 nM	134 nM	134 nM	138 nM	119 nM
GCUAUGGUAGGAAGGAGCGCUUAUUUAUUUUUAAGAGUGAUGUUCGUUAGUAGAUAGUUAAAGCAGGUAGGUCGCCUACUAUAGC [Arginine B K4 15]	146 nM	177 nM	171 nM	161 nM	100 nM
CCCUUAGACUCGGCCGCCACUCGUACCGAGAGCAUGCCACCCAUUAGUGAUGUUAAUUUGUCCUUGAGGACCGGGAGCCUAGGAA [theeternabot_exclusion_KL_Trp_B_44]	941 nM	789 nM	980 nM	986 nM	822 nM
UGGAUAUCGUUUAGUCUGGUGAGCUCAGAUACCAGACUAGCGAUGGUCCCUUGGCAGCUGAUUACGAUUGAGUGAUGUUCAAUCG [Theo A Ex t9c]	168 nM	152 nM	172 nM	160 nM	158 nM

Sequence	apparent KD of K4 kissing-loop reporter (input ligand: FMN 200 uM)	apparent KD of K4 kissing-loop reporter (input ligand: arginine 13.2 mM)	apparent KD of K4 kissing-loop reporter (input ligand: none)	apparent KD of K4 kissing-loop reporter [1]	apparent KD of K4 kissing-loop reporter [2]
GCCGUAGAUGGAAGGAGCGUGUCCAAACCUCAUUCAUGUACACACGAGUGAUGUUCGUGUACACAGGUAGGUCGCCAUCUACGGC	413 nM	314 nM	374 nM	410 nM	363 nM
UAAACCAAAUUACGUCACCUUGUCCAAUCUAAGGAUAUGUGAUUCCACAGAAGGUAGCCACGGGAGUGAUGUUCGCGUUAAGGCG [theeternabot_exclusion_KL_FMN_A_31]	475 nM	388 nM	465 nM	460 nM	419 nM
AUAAACUUGCAGUGAUGUUGCAAGUGAGACUAGGAUAUCAGGAAGCUGAGAAGGAGUCAUCUCCUUCAAACAUCACUAUGAAGGA [whbob_SS_FMNA__2th178]	403 nM	287 nM	336 nM	232 nM	292 nM
UAUCGAGUGAUGUUCGAUGUAGUCCAUUCAGAGGAUAUAGGAUUGACUAGAAGGCUGAAACCUUCUUCGAGUGAUGUUCGAGGAU [Same State FMN A GF4]	92.5 nM	39.6 nM	58.9 nM	45.2 nM	47.4 nM
CGCGCCCAGCCGGAUACCAGUGACCCGCUGGGAACCGCGGGCCCAGAGUGAUGUUCGGGACACCCUUGGCAGCCGCCUGGGCGGC [#2 Same State - Theophylline B Attempt #9 (HarryS)]	1370 nM	229 nM	999 nM	717 nM	766 nM
AGACUACCACACUGUCAAUAGACAGUGGACUAGGAUAUGCUGAUAAGCAGAAGGAGUGAUGUUCCUUGGUAGUCAAUAAAAUAAU [FmnAX 13 G28+U67]	308 nM	269 nM	253 nM	335 nM	265 nM
UGGACCUGACUCGAUAAGAGUCAAUGAGAUACCAGUGACGAAAGUCACCCUUGGCAGCUCACUGCCAGUGAUGUUGGUAGGUCCU [#SwitchBubble 3 #StaticStem]	1250 nM	919 nM	1300 nM	738 nM	1070 nM
UGAUACCAGACGGCCGCCACUUCCGUAAGUCAAAGACUUGCCAAGGGAAUCGUCCAGUGAUGUUGGAGGACCGGGUCUGGUAUCU [FiskerMod 5 - Jieux - Exclusion - Tryptophan B]	677 nM	491 nM	725 nM	511 nM	550 nM
ACGGGCGGCUGAAGGAGCGGGCGGGCCCGAGUGAUGUUCGGGUGGGCCGUGAGGCCCGGAGCCCAGGUAGGUCGCGGUUCCGUCC [#2 Same State - Arginine B Attempt #21 (HarryS)]	135 nM	104 nM	182 nM	171 nM	164 nM
UGAUACCAGACUGAUACCAGCUAGUGAUGUUAGCUAAAAUCAGGGUCAAAGACCCUGUCUGGCCCUUGGCAGCAGUCUGGUAUCU [TheoBX 10 #SwitchBubble #StaticStem]	137 nM	120 nM	134 nM	191 nM	120 nM
AUUGAUAUAUAUAUUUGAUUUUUAUGUGAUACCAGACAAGGCAUAGUCCCUUGGCAGCACUUUAUAUUUACGAGUGAUGUUCGUA [JR_SSTheophyA_Sub025]	192 nM	180 nM	180 nM	187 nM	154 nM
UUGAGCCGGACUCAAGUCCGGCUCUGCGAGCGAGGACCGGUACGGCCGCCACUCGGUGCAGUGAUGUUGCAUGGCCGCAAGGCCG [#2 Exclusion - Tryptophan A Attempt #13 (HarryS)]	413 nM	133 nM	482 nM	404 nM	520 nM
AAAUUUUAAAGUGAUACCAGACAUCUCUAUUACAUUAAUAUAGCUAAGUGAUGUUUAGCAGUCCCUUGGCAGCACAAUUUAAUUA [JR_SSTheophyB_Sub012]	336 nM	316 nM	334 nM	474 nM	266 nM
GCCAGGCAUCUGCAGAGUGAUGUUCAAAAGCGAGGACCGGUACGGCCGCCACUCGAAAGCAGAUGCCUGGGCGUACAAAGUACGC [idea]	1140 nM	262 nM	984 nM	562 nM	899 nM
GAUAUAGUGAUGUUAUAUAAGAAGGAGUUACGAGGACCGGUACGGCCGCCACUCGAAACGAGUGAUGAUUUGGGAGAUUGGGUUG [SSTryptA.O]	380 nM	330 nM	350 nM	339 nM	265 nM
GCGUCAUCGAAAGGAUAUGGAGUAGUGAUGUUGAUCCAUAUGCUCACGCAUAGCCGAGAACAUCGACCAGAAGGUUCAAGAACUG [theeternabot_exclusion_KL_FMN_B_41]	672 nM	509 nM	757 nM	520 nM	459 nM
AGCAGUCCAGGAUCGAAAGAUCCUGAGGUCCGAGGACCGGUACGGCCGCCACUCGGAGUGAUGUUCCGAAGACUGCAAAAUAAAA [#SwitchBubble 5]	302 nM	236 nM	108 nM	135 nM	105 nM
AUGUCUGAUAGCAGUGAUGUUGCUUCGGAUACCAGACGCGAUCUUGUCCCUUGGCAGCUGACACGGCACGUGCUAGGUUAGAAGG [whbob_Ex_Theo_A_th75]	169 nM	125 nM	155 nM	124 nM	134 nM
UUUGAAAUGACUGAUACCAGUGAAAAUAUAUGUAGUGAUGUUAUAUACUAAUUUAAUAAGCGCCCUUGGCAGCAGUAUGAAUUAU [AstrosExc-theB#16]	763 nM	565 nM	927 nM	527 nM	560 nM
GCCGUAGAUGGAAGGAGCGAGGUAGACUGUUGAAGUGAUGUUUCAACUCAUUAAGCCCAACCUCAGGUAGGUCGCCAUCUACGGC	133 nM	110 nM	115 nM	118 nM	115 nM
AGGAGCUGUCGACAAAAGUCGACAUAAACCAAGGAUAUGACGAAAGUCAGAAGGUGGUCAUAAGACCAGUGAUGUUGGUAGCUCC [FmnA 10 #SwitchBubble #K4Late]	952 nM	259 nM	466 nM	488 nM	338 nM

Reference: the supplement of paper PMC9170038
